Residue numbers refer to the chain shown, from its start. In names and notes the source's numbering stands.

Sequences and labels used below:
B1: ARH3 (E261Q/E262Q): human ARH3 mutant E261Q/E262Q (SEQ ID NO: 3) (protein, listed as Homo sapiens)
chain: MAAAAMAAAAGGGAGAARSLSRFRGCLAGALLGDCVGSFYEAHDTVDLTSVLRHVQSLEPDPGTPGSERTEALYYTDDTAMARALVQSLLAKEAFDEVDMAHRFAQEYKKDPDRGYGAGVVTVFKKLLNPKCRDVFEPARAQFNGKGSYGNGGAMRVAGISLAYSSVQDVQKFARLSAQLTHASSLGYNGAILQALAVHLALQGESSSEHFLKQLLGHMEDLEGDAQSVLDARELGMEERPYSSRLKKIGELLDQASVTRQQVVSELGNGIAAFESVPTAIYCFLRCMEPDPEIPSAFNSLQRTLIYSISLGGDTDTIATMAGAIAGAYYGMDQVPESWQQSCEGYEETDILAQSLHRVFQKS
B2: ARH3 (E238Q/E239Q): human ARH3 mutant E238Q/E239Q (SEQ ID NO: 4) (protein, listed as Homo sapiens)
chain: B1 chain with E238Q, E239Q, Q261E, Q262E
B3: ARH2: recombinant mouse or human ARH2, structurally related 39-kDa ADP-ribose-binding protein (protein, listed as Homo sapiens)
chain: MEKFKAAMLLGSVGDALGYRNVCKENSTVGMKIQEELQRSGGLDHLVLSPGEWPVSDNTIMHIATAEALTTDYWCLDDLYREMVRCYVEIVEKLPERRPDPATIEGCAQLKPNNYLLAWHTPFNEKGSGFGAATKAMCIGLRYWKPERLETLIEVSVECGRMTHNHPTGFLGSLCTALFVSFAAQGKPLVQWGRDMLRAVPLAEEYCRKTIRHTAEYQEHWFYFEAKWQFYLEERKISKDSENKAIFPDNYDAEEREKTYRKWSSEGRGGRRGHDAPMIAYDALLAAGNSWTELCHRAMFHGGESAATGTIAGCLFGLLYGLDLVPKGLYQDLEDKEKLEDLGAALYRLSTEEK
B4: mouse ARH3: murine ARH3 amino acid sequence SEQ ID NO: 6 (protein, listed as Mus musculus)
chain: MAVAAAAAATAMSAAGGGGASAARSISRFRGCLAGALLGDCVGAVYEAHDTVSLASVLSHVESLEPDPGTPGSARTETLYYTDDTAMTRALVQSLLAKEAFDEVDMAHRFAQEYKKDPDRGYGAGVITVFKKLLNPKCRDVYEPARAQFNGKGSYGNGGAMRVAGISLAYSSVQDVQKFARLSAQLTHASSLGYNGAILQALAVHLALQGVSSSEHFLEQLLGHMEELEGDAQSVLDAKELGMEERPYSSRLKKVGELLDQDVVSREEVVSELGNGIAAFESVPTAIYCFLRCMEPHPEIPSTFNSLQRTLIYSISLGGDTDTIATMAGAIAGAYYGMEQVPESWQQSCEGFEETDVLAQSLHRVFQESS

One test in a line: Hydrolysis of O-acetyl-[14C]ADP-ribose by ARH proteins / PARG (RP-HPLC). The format is biochemical. The note with it: 1.5 pmol wild type or mutant human ARH3 or 20 mU PARG, 2 h at 30° C.; mouse ARH1, 2, 3. The protocol:
FIG. 13A is a graph illustrating the results from incubation of 1.5 pmol of mouse ARH3 with or without 5 mM DTT and/or 10 mM MgCl2 as described in FIG. 11B with incubation for 1 h at 30° C. FIG. 13B is a graph illustrating the results from incubation of 1.5 pmol of wild type or mutant human (D77-78) ARH3 or 20 mU of PARG for 2 h at 30° C. *D77,78, assays incubated with 15 pmol of mutant human ARH3 (D77, D78).
FIG. 14A is a graph of the results from incubation with the indicated amount of mouse ARH1, 2, or 3 for 2 h at 30° C. FIG. 14B is a graph of the results from incubation with 230 pmol of mouse ARH1 at 30° C. for the indicated time.
Mouse ARH3 (2 pmol) and 2.5 μM O-acetyl-[^14C]ADP-ribose (5,000 cpm) in 200 μl of buffer containing 50 mM potassium phosphate (pH 7.0), 10 mM MgCl2 and 5 mM DTT were incubated for 2 h at 30° C., before separation of substrate and products using RP-HPLC as described below.
Hydrolysis of O-acetyl-[^14C]ADP-ribose catalyzed by ARH3. Assays containing the indicated concentration of O-acetyl-[^14C]-ADP-ribose (0.1 to 2 nmol, 1,000 to 20,000 cpm) and 1.5 pmol of ARH3 in 200 μl of buffer (50 mM KPO4 (pH 7.0), 10 mM MgCl2, 5 mM DTT) were incubated at 30° C. for 20 min. Substrate and products were separated using RP-HPLC. Amounts of product were corrected for ADP-ribose produced in the absence of ARH3 before calculation of hydrolysis rates.
Because O-acetyl-ADP-ribose was known to be hydrolyzed at alkaline pH Tanny and Moazed (2001), Proc Natl Acad Sci USA. 98(2):415-20, Epub Dec. 26, 2000), it was generated at pH 7.0 in the presence of [^14C-adenine] β-NAD, Sir2, and acetylated histone H3 peptide (FIG. 11A), and the products of Sir2 and ARH3 were analyzed using reverse-phase HPLC at the same pH (FIGS. 11A,B). The products of the ARH3-catalyzed reaction were also analyzed by high resolution-polyacrylamide gel electrophoresis (FIG. 11C). O-acetyl-[^14C]ADP-ribose hydrolase activity was time and ARH3 dependent (FIG. 12) and essentially completely dependent on Mg^2+ (FIG. 13A).
O-acetyl-ADP-ribose hydrolysis by ARH1 was time and ARH1 dependent (FIG. 14b).
In the case of B1, the “O-acetyl-ADP-ribose hydrolysis (in words)” value was “rate similar to wild type”.

Take B2: the “O-acetyl-ADP-ribose hydrolysis (in words)” value is “rate similar to wild type”.

With B3, the “O-acetyl-ADP-ribose hydrolysis (in words)” value is “appeared to be inactive”.

Another test is described as follows: Poly(ADP-ribose) hydrolysis (autoradiography, high resolution PAGE, HPLC). It counts as biochemical. The conditions noted are these: 50 nM human ARH3 (wild-type or mutant); ~2 μM ADP-ribose; HPLC C18. On the procedure:
Poly(ADP-ribose) hydrolysis by autoradiography. [^32P]poly(ADP-ribose)PARP (500 ng of PARP with poly(ADP-ribose) was incubated (37° C., 2 h) with 2 μM ARH in 25 μl of 50 mM potassium phosphate buffer, pH 7.5, with or without 10 mM MgCl2 and/or 5 mM DTT. Reactions were stopped by adding 6 μl of 5× Laemmli buffer. Samples (20 μl) of proteins were separated by SDS-PAGE in 4-20% gels and transferred to nitrocellulose membranes that were exposed to X-ray film (Kodak) for 10 h.
Hydrolysis of poly(ADP-ribose) by PARG and ARH3. Purified [^32P] poly(ADP-ribose) (5.5×10^5 cpm, ˜300 nM ADP-ribose) was incubated for the indicated time at 37° C. in 25 μl of 50 mM potassium phosphate, pH 7.5, containing 10 mM MgCl2 and 5 mM DTT with enzyme or other additions as indicated and terminated by addition of 25 μl of 2× electrophoresis buffer (Invitrogen). [^32P]AMP was generated by incubation (37° C., 3 h) of 10 μM [^32P] NAD (10 μCi/reaction) with pyrophosphatase (40 units/mg from SIGMA, 1 mg/ml) in 25 μl of 50 mM KPO4, pH 7.5, and 10 mM MgCl2. [^32P] ADP-ribose was generated in a 25 μl mixture containing 50 mM KPO4, pH 7.5, 25 μg of activated CTA, 10 μM [^32P] NAD (10 μCi/reaction), 10 mM MgCl2, and 5 mM DTT, which was incubated at 30° C. overnight. [^32P] phosphoribosyl-AMP was generated by incubation (37° C., 3 h) of [^32P]poly(ADP-ribose) (5.5×10^5 cpm, ˜300 nM ADP-ribose) with Crotalus adamanteus phosphodiesterase (10 mU/reaction), 25 μl of 50 mM KPO4, pH 7.5, 10 mM MgCl2, and 5 mM DTT. Identities of AMP and ADP-ribose standards were confirmed by HPLC on C18 and SAX columns respectively.
High resolution Polyacrylamide Gel Electrophoresis (PAGE). Polyacrylamide (20%) gels (20×20×0.15 cm) containing polyacrylamide and bis(acrylamide), in a ratio of 19:1, 100 mM Tris-borate, pH 8.3, 2 mM EDTA, 4.4 mM ammonium persulfate, and 3.4 mM TEMED with electrophoresis carried out for 2 h at 400V with 50 mM Tris-borate, pH 8.3, 1 mM EDTA, before application of samples (15 μl) were used for analysis of poly(ADP-ribose) degradation. Subsequent electrophoresis at 400V was stopped when bromophenol blue (BPB) had moved 9 cm from the origin. Gels were exposed to X-ray films (Kodak).
HPLC analysis. HPLC, Hewlett-Packard series 1100 equipped with a diode-array spectrophotometric detector set at 254 nm, was used for separation of reaction products. For anion exchange perfusion chromatography, Zorbax SAX column (4.6×250 mm; DuPont, Wilmington Del.) was washed with 20 mM potassium phosphate, pH 4.5, for 30 min, followed by a linear gradient of 0-1M NaCl in the same buffer for 10 min (30-40 min), then same buffer with 1M NaCl for 10 min (40-50 min) at a flow rate of 1 ml/min. Nicotinamide was eluted at 3 min, NAD at 10 min, and ADP-ribose at 40 min. For reverse phase, Discovery C18 column (4.6×250 mm; SUPELCO, Bellefonte Pa.) was used. Samples were separated isocratically with 100 mM potassium phosphate, pH 6.0 containing 7% methanol at a same flow rate of 1 ml/min. ADP-ribose was eluted at 6 min, NAD at 8 min, nicotinamide 9 min.
Poly(ADP-ribose)PARP was used as substrate to assay potential poly(ADP-ribose) hydrolase activities of recombinant ARH1, 2 or 3. Products were identified by autoradiography and HPLC. Fractions (1 ml) were collected for liquid scintillation counting to quantify [^14C]ADP-ribose, which was eluted in fractions from 34 min to 43 min. Because ARH1 activity may require both DTT and Mg^2+, depending on species (Takada et al. (1993) J. Biol. Chem. 268:17837-17843; Moss et al. (1992) J. Biol. Chem. 267:10481-10488), these reactions were performed with or without 10 mM MgCl2, and/or 5 mM DTT. […] Degradation of [^32P]poly(ADP-ribose) by ARH3 was enhanced by 10 mM MgCl2 (FIG. 4A). Data were similar with mouse ARH3.
Samples of [^14C] ADP-ribosylated PARP (250 ng, 15,000 cpm, ˜850 nM ADP-ribose) were incubated at 37° C. (total volume, 100 μl) with human ARH3 as indicated. […]
Turning to B1, the “Release of [14C]ADP-ribose from [14C]poly(ADP-ribose)PARP relative to wild-type ARH3” value is recorded as approximately 98%.

In the case of B2, the “Release of [14C]ADP-ribose from [14C]poly(ADP-ribose)PARP relative to wild-type ARH3” value was approximately 97%.

The test is the same for the next values; noted with them: [32P]poly(ADP-ribose) or poly(ADP-ribose)PARP; 37° C.; autoradiography / PAGE / HPLC.
In the case of B1, the “Poly(ADP-ribose) hydrolysis (in words)” value is on record as “catalytic activities similar to that of the wild-type enzyme”.

Consider B2, for which the “Poly(ADP-ribose) hydrolysis (in words)” value is recorded as “catalytic activities similar to that of the wild-type enzyme”.

As to B4, the “Poly(ADP-ribose) hydrolysis (in words)” value is given as “similar”.

Turning to B3, the “Poly(ADP-ribose) hydrolysis (in words)” value is listed as “did not”.

The values above are taken from patent publication US7670806B2, “ADP-ribosyl acceptor hydrolase 3 (ARH3) polypeptides and methods of use” (The United States of America as represented by the …, priority 2005, dated 2010).
